The target in test [1] is T1, human insulin receptor extracellular domain (HIR ECD) (human, UniProt P06213 28-956, limits assumed).
T1 construct: extracellular domain
In words: competitive ligand binding assay: displacement of [125I] murine HIRMAb from plated HIR ECD; Scatchard analysis, high affinity site, nonlinear regression. A general note: In a radioligand displacement assay an active substance lowers the binding of a labelled ligand.

In test [2] the target is T1, human insulin receptor extracellular …. In words: ELISA on plated HIR ECD, COS cell-derived protein, detection with biotinylated goat anti-human IgG; non-linear regression. (In general: An ELISA detects its analyte on a solid surface through an enzyme-linked reagent.)
Test [3] concerns the target T2, Fc fusion of the human GFRα1 extracellular domain (GFRα1:Fc fusion protein) (human, UniProt P56159 25-429, limits assumed).
T2 construct: extracellular domain; Bought (R&D Systems), captured on plates by a mouse anti-human IgG; also called GFRα1 ECD; GFRal; not shown: Fc part of the bought fusion, captured by a mouse anti-human Fc antibody
T2 sequence (looked up): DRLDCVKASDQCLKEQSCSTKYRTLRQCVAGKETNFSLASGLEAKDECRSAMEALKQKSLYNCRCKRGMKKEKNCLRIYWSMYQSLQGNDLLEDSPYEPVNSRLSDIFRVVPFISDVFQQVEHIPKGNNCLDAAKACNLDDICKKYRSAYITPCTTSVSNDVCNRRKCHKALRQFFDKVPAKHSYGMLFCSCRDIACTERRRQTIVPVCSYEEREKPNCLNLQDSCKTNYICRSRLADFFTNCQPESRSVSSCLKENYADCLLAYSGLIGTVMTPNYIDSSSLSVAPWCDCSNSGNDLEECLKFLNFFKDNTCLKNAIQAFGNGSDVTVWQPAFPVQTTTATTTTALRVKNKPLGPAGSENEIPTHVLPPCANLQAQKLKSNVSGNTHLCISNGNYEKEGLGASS
The experiment in a line: ELISA on GFRα1:Fc captured by mouse anti-human Fc antibody, detection with goat anti-GDNF antibody.

In test [4] the target is T2, Fc fusion of the human GFRα1 …. In words: ELISA on GFRα1:Fc captured by mouse anti-human IgG, detection with goat anti-GDNF antibody.
The target is the same in test [5]. The experiment in a line: ELISA on captured GFRα1:Fc (format of FIG. 33), run with the CHO-derived fusion protein.

B1: chimeric HIRMAb (Examples 3 and 4) (antibody, human IgG1, kappa)
heavy: not shown
light: DIQMTQSPSSLSASLGERVSLTCRASQDIGGNLYWLQQGPDGTIKRLIYATSSLDSGVPKRFSGSRSGSDYSLTISSLESEDFVDYYCLQYSSSPWTFGGATKMEIKRTVAAPSVFIFPPSDEQLKSGTASVVCLLNNFYPREAKVQWKVDNALQSGNSQESVTEQDSKDSTYSLSSTLTLSKADYEKHKVYACEVTHQGLSSPVTKSFNRGEC
notes: also called chimeric form of the HIRMAb; product of clone 400
For orientation: Ki means a measure of affinity in units of concentration, obtained from inhibition or displacement. Low values mean tighter binding, high ones weaker binding. Molecule B1 showed a Ki in test [1] of 0.63 nM. In other words, the sub-nanomolar range.

B2: chimeric HIRMAb (Examples 15 and 16) (antibody, human IgG1, kappa, V domains shown)
VH: QVQLQQSGPELVKPGALVKISCKASGYTFTNYDIHWVKQRPGQGLEWIGWIYPGDGSTKYNEKFKGKATLTADKSSSTAYMHLSSLTSEKSAVYFCAREWAYWGQGTLVTVSA
VL: DIQMTQSPSSLSASLGERVSLTCRASQDIGGNLYWLQQGPDGTIKRLIYATSSLDSGVPKRFSGSRSGSDYSLTISSLESEDFVDYYCLQYSSSPWTFGGGTKMEIKR
notes: also called COS cell-derived chimeric HIRMAb; CHO-derived HIRMAb
What is called EC50 is the concentration that produces a half-maximal response. A high value points to lower potency in that assay. B2 gave an EC50 in test [2] of 0.5 nM. Further, in test [3], the binding result was “no binding”.

B3: recombinant human GDNF (ligand)
chain: SPDKQMAVLPRRERNRQAAAANPENSRGKGRRGQRGKNRGCVLTAIHLNVTDLGLGYETKEELIFRYCSGSCDAAETTYDKILKNLSRNRRLVSDKVGQACCRPIAFDDDLSFLDDNLVYHILRKHSAKRCGCI
notes: Bought (Peprotech); also called recombinant GDNF
Take B3: the EC50 worked out at 1.03 nM in test [4] and 1 nM in test [5].

The values are drawn from patent US20220378932A1 (published 2022).
